The record followed here is article PMC7094341.

Assay [1] deals with SARS-CoV papain-like protease (PLpro), trypsin-trimmed product of P-PLpro(C2)-His6 (SARS-CoV).
Assay [2] has the same target. This is another data set of the same source.

ISG15(C)-AMC, sequence (P05161 82-157): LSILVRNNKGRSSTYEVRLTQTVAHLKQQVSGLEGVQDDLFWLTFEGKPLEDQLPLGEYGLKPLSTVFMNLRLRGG

With “ISG15(C)-AMC (from UniProt P05161 82-157) (domain or fragment)”, the kcat/KM of hydrolysis of ISG15(C)-AMC by PLpro (fluorescence, pH 7.8, 25 °C) in assay [1] was determined as 94000 M⁻¹ s⁻¹.
Regarding Ub-7-amino-4-methylcoumarin, the kcat/KM of hydrolysis of Ub-AMC by PLpro (fluorescence, pH 7.8, 25 °C) in assay [2] was found to be 19800 M⁻¹ s⁻¹.
